In the DeepSol protein solubility set:

test: soluble on expression in E. coli; label from the status in PepcDB or PDB records

Sequence | soluble on expression in E. coli
MSKSEETLSSIMEASYRLFARHGITKTTYSMIAEEVGIAKPSIYYYFKSKDALIECIFTELCAAMQFSSFFHTEEFTKENFIEKCIEIGFKIIDEQQNDPYFNRVLQEYLLLSSRNDMYKDRLLTVQTEYLQGFESLLTKANELQLIENKNLVSKAHMLALVLDNVGNFMMLHVDIDYRQIWMEAVNIIFERRD | not soluble
MDGELKNLKCNISQLAAITGLHRQTVVSRLSGVPLAPGSNEKNKLYLLTDVIRVLMEAPVSQAAEHQDPNKMTPKERKDWFDSEKGRLWLEKEMKQVVPLPEVRQQMAAIVKAITQVLEVWPDKLERDKGWSADQLNEAQDVVDEVRILLVKAIQETADDDGE | not soluble
SIIPSLEELDSLKYSDLQNLAKSLGLRANLRATKLLKALKGYIKHEARKGNENQDESQTSASSCDETEIQISNQEEAERQPLGHVTKTRRRCKTVRVDPDSQQNHSEIKISNPTEFQNHEKQESQDLRATAKVPSPPDEHQEAENAVSSGNRDSKVPSEGKKSLYTDESSKPGKNKRTAITTPNFKKLHEAHFKEMESIDQYIERKKKHFEEHNSMNELKQPINKGGVRTPVPPRGRLSVASTPISQRRSQGRSCGPASQSTLGLKGSLKRSAISAAKTGVRFSAATKDNEHKRSLTKTPARKSAHVTVSGGTPKGEAVLGTHKLKTITGNSAAVITPFKLTTEATQTPVSNKKPVFDLKASLSRPLNYEPHKGKLKPWGQSKENNYLNQHVNRINFYKKTYKQPHLQTKEEQRKKREQERKEKKAKVLGMRRGLILAED | not soluble
MYCIGCGAKIQTEAKNALGFLPAGALKKKIAERDQMEAVQAGDEGSEASIKTEDLYCQRCFRLRHYNEIAPTSLTDADFLRLLKEIGQHDALIVNVVDIFDFNGSLIPNLHKLTGGNDLLMVANKRDVLPKSLKVGKLTAWLREQAASRSLKPKDILVTSAQNKDDVAELMEAIEYYRRGRDVYVVGVTNVGKSTLINAIIKSASGSEDVITTSRFPGTTLDKIEIPLDEDSALIDTPGIIHRGQIAHYLEPEDLKYVSPRKEIKPKTYQLDPEQTLFFGGLARFDFISGERQGMTAYFDNEINVHRTKLEGATEFYEKHKGELLAPALVGAKLVRREFKITDKSDIVFSGLGWVRVPQKAVVAAWVPEGVDVVVRKALIGLEHHHHHH | soluble
MGSDKIHHHHHHMDSLVVPGLDTLRRWLDEIGISFFECDSCQALHLPHMQNFDGIFDAKIDLVDNVVLFSALAEVKPSALLALSADLSAINASSLTVKAFIDIQDDNLPKLVVCQSLSIGPGVTMEQFAWFFRQSEEQISMVILEAGANQLLYKGEEEEPAAENVQYHFLH | not soluble
MTVKIALLGFGTVASGVPFLLKENGGKINQSAHSDIKVAKVLVKDEDEKNRLLAAGNDFNFVTNVDDILSDQDITIVVELMGRIEPAKTFITRALEAGKHVVTANKDLLAVHGAELLEIAQANKVALYYEAAVAGGIPILRTLANSLASDKITRVLGVVNGTSNFMVTKMVEEGW | not soluble
GSHMSLSNKLTLDKLDVKGKRVVMRVDFNVPMKNNQITNNQRIKAAVPSIKFCLDNGAKSVVLMSHLGRPDGVPMPDKYSLEPVAVELKSLLGKDVLFLKDCVGPEVEKACANPAAGSVILLENLRFHVEEEGKGKDASGNKVKAEPAKIEAFRASLSKLGDVYVNDAFGTAHRAHSSMVGVNLPQKAGGFLMKKELNYFAKALESPERPFLAILGGAKVADKIQLINNMLDKVNEMIIGGGMAFTFLKVLNNMEIGTSLFDEEGAKIVKDLMSKAEKNGVKITLPVDFVTADKFDENAKTGQATVASGIPAGWMGLDCGPESSKKYAEAVTRAKQIVWNGPVGVFEWEAFARGTKALMDEVVKATSRGCITIIGGGDTATCCAKWNTEDKVSHVSTGGGASLELLEGKVLPGVDALSNI | soluble
MLGASRWRRTSAFSGIWRIPMSSNNSSRKVVTVDEQAFERTEDAGVDEDGFKVVDDKPEFRATVQQEKQAKVDSNHPDGIVQDFSHLPLAQEEKIRAREAELDHISAQAELGTQDGRAKRTRKVVTERRQRKRAERTPDRTDPRERLSRMELAKVNQEADRMAQRLRTGHSRAAVSRALAKRVAKGQDITKAVFDTMDALKAAPGAICPIEDVPDVQTDEVSIEGEVVQLWDASSRKIAQVGLVADDTGKIKFTSWRKSEPAFVQEGDTVRMRAVKKNWYEGRCSLAVTYDSMIVFPERDRRWWEELEHHHHHH | not soluble
MASEIHMTGPMCLIENTNGRLMANPEALKILSAITQPMVVVAIVGLYRTGKSYLMNKLAGKKKGFSLGSTVQSHTKGIWMWCVPHPKKPGHILVLLDTEGLGDVEKGDNQNDSWIFALAVLLSSTFVYNSIGTINQQAMDQLYYVTELTHRIRSKSSPDENENEVEDSADFVSFFPDFVWTLRDFSLDLEADGQPLTPDEYLTYSLKLKKGTSQKDETFNLPRLCIRKFFPKKKCFVFDRPVHRRKLAQLEKLQDEELDPEFVQQVADFCSYIFSNSKTKTLSGGIQVNGPRLESLVLTYVNAISSGDLPCMENAVLALAQIENSAAVQKAIAHYEQQMGQKVQLPTESLQELLDLHRDSEREAIEVFIRSSFKDVDHLFQKELAAQLEKKRDDFCKQNQEASSDRCSGLLQVIFSPLEEEVKAGIYSKPGGYRLFVQKLQDLKKKYYEEPRKGIQAEEILQTYLKSKESMTDAILQTDQTLTEKEKEIEVERVKAESAQASAKMLHEMQRKNEQMMEQKERSYQEHLKQLTEKMENDRVQLLKEQERTLALKLQEQEQLLKEGFQKESRIMKNEIQDLQTKMRRRKACTIS | soluble
SMPHSVTLRGPSPWGFRLVGGRDFSAPLTISRVHAGSKAALAALCPGDLIQAINGESTELMTHLEAQNRIKGCHDHLTLSVSRPEGESDL | soluble
MGSDKIHHHHHHMSVQESVGGDVTGWWPSDNESLSPYPLYRERFCREGGLQPVFSGRTVLLPLRPGLLLSMREGQALTDLRGKREVGPAMHLEILFAAEGYSVVSGSTERYPFKPNTVSLQVTSSAVVAEFFIPAGAVIRSLAVRFSGLYLDHLASKGGFAALCSGGGDPLLLSRGVDLVMRPLSPALRPLASQILATEGATDGERLFLEAKILELISVVLSTPASGGGQSQTEPTKTALSRRDHKKIGQARELLIGDLDKTWKIKDLARHVGMNENKLKAGFRQIYDNSIYAYLQDWRMRAASHRLKQGEDSVTGVALSVGYSNPAHFAKVFRRYFGVSPSRYAEDGAPGPKKDNETY | not soluble
MGSDKIHHHHHHLSREARYLEEARGFYQSGKFSSAGIYARKVIRREPSNGEAQALLGHLAFRSGEHQEAMSCYLKAQAAGFQDQELRLNLVTLHERREAFFDAVNLLRELVEETPQDLSLQLRLGINASRTGDMTTAESALLAALAGDEQAAQASLNLGHVYKAKGDTDKAAAFYHDYIRLAPSQQATAYWSLADLKNYRFTEQDEAALKANIAAEEFSQASQSLFHFALNRVYEQRKQGEQAFDAVRMANQLMRPLRPFKREAFTRLVDSLKSAEVKPRGEETSGPWTPIFIVGMPRSGTTLCEQILASHSQIAATDELPFMERLALSLEMKGGYGAMLPRLSEEQIAQMRQQYIEQVNQYLKAQGEASPSLVPSLVIDKNPNNFIHIGLIKTLFPEAKIINVIRDARDNAMGVYKQHFSHGHDYSYHLDDICHYWQLYLELMAHWQQAYGDSLYHLCFEQLVKAPDQQIPAMVDYVGLALEPACLKFYESKRSVLTPSASQVRRPMNVKAIGQSEAYAAFIPNAYRTLTVIADRAHKSFLS | not soluble
AKQQKHFVLVHGGCLGAWIWYKLKPLLESAGHKVTAVDLSAAGINPRRLDEIHTFRDYSEPLMEVMASIPPDEKVVLLGHSFGGMSLGLAMETYPEKISVAVFMSAMMPDPNHSLTYPFEKYNEKCPADMMLDSQFSTYGNPENPGMSMILGPQFMALKMFQNCSVEDLELAKMLTRPGSLFFQDLAKAKKFSTERYGSVKRAYIFCNEDKSFPVEFQKWFVESVGADKVKEIKEADAMGMLSQPREVCKCLLDISDS | soluble
MSAKDFLVELGTEELPPKALNSLGEAFLSGIEKGLKAAGLSYAAARFYAAPRRLAVLVEQLAVQQPDRTVNLDGPPLQAAFDASGNPTQAALGFAKKCGVDLQQIDKSGPKLRFIQTIAGQPAAGLLPGIVEASLNELPIPKRMRWAARREEFVRPTQWLVMLFGDDVVECEILAQKAGRESRGHRFHNPDNVRISSPAAYLEDLRGAHVLADFAERRELIAKRVAELAAEQQGSAIVPPSLLDEVTALVEWPVPLVCSFEERFLEVPQEALITTMQDNQKYFCLLDANGKLLPRFITVANVESKAPENIVSGNEKVVRPRLTDAEFFFKQDKKQPLESFNERLRNVVFQAQLGTVFEKAQRVSGLAAYIAERIGGNAQNASRAGILSKCDLATEMVGEFPEMQGIAGYYYATHGGEAEDVALALNEQYMPRGAGAELPSTLTGAAVAVADKLDTLVGIFGIGMLPTGSKDPYALRRAALGVLRILIEKQLDLDLVAAVNAAVEQYGDKVKAAGLAEQVLDFVFDRLRARYEDEGVDVAVYQSVRALKPSSPLDFDQRVQAVQAFRQLPEAEALAAANKRVSNILAKSEDEVPPNVDASLLVEAAEKALGSAVANAESEVAPLAAARDYRAALARLAALREPVDTFFADVMVNVDDAAVRANRYALLAKLRGSFLGVADIS | not soluble
MSLTERRQATAIVRAHGHTSLARLTLLEDKSYCFSPSGESLIAFVQRGRGAIALGDPIGPARDREAIIQQFLRECQQNDWLPAFYQVLPDDLPLYQRQGLASDQIGQEAVIPLQDFSLQGKRGRGFRSTLSRLERAGYRFEVIPAAEIYPLLPELRFVSDTWLKRMKGPEKRFSVGWFDRDYLTSGSIAVVRSQDGQIQAFANWVEEFQRNELTLDLIRFLPSAESSTMEFLLVNTILAAKDRGFDSFSLGLSALSGLDQLDQPNQVEQGLDYLYRHLDRFYRFQGLHSFKEKFHPDWQPRYFVYPNLAAIPSLVVTLVRADSGDRWLDYFRANDEGHHHHHH | not soluble
MSSLFVVGIGPGSNDLMTPQASLAIERSEYVIGFSLYVSFIKEKFPNKIYISNGMQGEIERAKKAIELARSGHNVSIISSGDAGIYGIAGAVFEILSTLEDNMPEVSVVPGIS | soluble
MSLKVVITRPKERADVFASLLKKEGFEPIIFPTLEIVYNKDLDVNLDSYDWIAFTSPSGVIGLYNILTENERENVKNKKIAVIGEKTAKTFKKYFGRDPDIMPNEYTAESLLREIKKVSKEEEKFLIPTTPSTRDVLKNNLNADLLFVYKSAEPENLKEDIKKLKELIAKDKFILTFTSGLTAKNFFKYVDDEFAEIIKDNYIVAIGPITAKVIEKFGFKPLIPKVYTIEGMLEVIRTLKEREGHHHHHH | soluble
MDQTYAEIENIYTLSPIIATTPKRYDVQYIQQKSRKNRNLIDHFDSRLPIEYRYPKKNSSATSSLSSAASRSLASKSLASSSSGYSSLGSTSSITTVFNGLSPFRSKSKNEEFDEQKAPSMRISEDVASIVIGENNSEVEEAVIDEVPEIKKRACCIECREKEIRQELDLESHQYANLQSLQKPQDPYVFLMTSMLTNLQKEDGGRQVVKVQQKIEKVLRLKPREPFNVEQKLVFDRQISTFASDVTIRLRAVSDAAPETYRDVSARFCEALHPGTPNSKGLKNIVKGVKNLLNF | not soluble
THQMNQFYTTGAGRDIFATDEAKQVSAHLANEVDQLAQSLLKKEVYDKTKLFVADFVRQYPFADLSMIRTPAYRAWLEANQISEEDAVTTLGTMPEALGDVSDRLSLVSEQTPKIMTWKAQLLALNSSASIEKVNAALNSLQVTADSMRDFIDNNPEYMRYLAEQMAVELQPLVDDIDQKTEARLSQLGEERQALEEMVARERQEIALIITHEREKFAQDMDRVSQEVVNLAMTKLIELVKST | not soluble
